PMC2528843

What was measured:
[1] = flow cytometry, mean YFP fluorescence, stable HepG2; conditions: glycan lost
[2] = confocal imaging, cell surface targeting, stable HepG2; conditions: glycan lost; control: wild-type hSVCT1-YFP
[3] = confocal imaging, apical targeting, polarized MDCK cells; conditions: glycan lost; control: wild-type hSVCT1-YFP
[4] = [14C]-ascorbic acid uptake, stable HepG2 cells; conditions: glycan lost; control: wild-type hSVCT1-YFP
[5] = confocal imaging, transiently transfected HepG2; conditions: glycan lost; control: untreated

Substance	expression_or_secretion ([1]; control: wild-type hSVCT1-YFP)	localisation_or_trafficking [3]	expression_or_secretion ([1]; control: wild-type hSVCT2-YFP)	also measured
hSVCT1: N138/N144Q	decreases			
hSVCT1: N138Q	decreases	decreases		localisation_or_trafficking [2]: decreases
hSVCT1: N138Q/N144Q		decreases		
hSVCT1: N144Q	no change	no change		other: transport activity [4]: decreases; localisation_or_trafficking [2]: no change
hSVCT1: tunicamycin				localisation_or_trafficking [5]: decreases; expression_or_secretion ([1]; control: untreated): decreases
hSVCT2: N188/N196Q			decreases	
hSVCT2: N188Q			decreases	
hSVCT2: N196Q			decreases	
hSVCT2: tunicamycin				localisation_or_trafficking [5]: no change; expression_or_secretion ([1]; control: untreated): decreases
